# In paper PMC9304170, “Chloromethyl Glycosides as Versatile Synthons to Prepare Glycosyloxymethyl‐Prodrugs” (Chemistry (Weinheim an Der Bergstrasse, Germany), 2022):
# Where “and” joins values, the source holds several entries; their conditions need not be identical. Equal values may be shown once.
# B1: Agrobacterium Sp. β-glucosidase (Abg, GH1 family) (Agrobacterium sp. ATCC 21400) (protein)
# chain: MTDPNTLAARFPGDFLFGVATASFQIEGSTKADGRKPSIWDAFCNMPGHVFGRHNGDIACDHYNRWEEDLDLIKEMGVEAYRFSLAWPRIIPDGFGPINEKGLDFYDRLVDGCKARGIKTYATLYHWDLPLTLMGDGGWASRSTAHAFQRYAKTVMARLGDRLDAVATFNEPWCAVWLSHLYGVHAPGERNMEAALAAMHHINLAHGFGVEASRHVAPKVPVGLVLNAHSAIPASDGEADLKAAERAFQFHNGAFFDPVFKGEYPAEMMEALGDRMPVVEAEDLGIISQKLDWWGLNYYTPMRVADDATPGVEFPATMPAPAVSDVKTDIGWEVYAPALHTLVETLYERYDLPECYITENGACYNMGVENGQVNDQPRLDYYAEHLGIVADLIRDGYPMRGYFAWSLMDNFEWAEGYRMRFGLVHVDYQTQVRTVKNSGKWYSALASGFPKGNHGVAKG
# How the values were obtained:
# [1] = target: T1, Agrobacterium Sp. β-glucosidase (Abg, GH1 family) (Agrobacterium sp., UniProt P12614); assay: Michaelis-Menten kinetics of enzymatic hydrolysis, release of 4-nitrophenol (absorbance at 405 nm); assay type: biochemical; settings: transglycosylation suggested for rate enhancement
# T1 sequence (P12614 1-459): B1 chain
# Method: (§1) Enzymatic reactions were performed in triplo at pH 6.8 (50 mM final concentration) containing 0.1 % bovine serum albumin at 37 °C.[25] Aliquots of 100 μL were taken at constant time periods and added to 100 μL aq. NaOH (0.1 M) in a 96‐well microtitre plate to quench the enzymatic reaction and ensure maximal absorption of sodium 4‐nitrophenolate as outlined in previous studies.[28] The initial rate (vo) was determined normalized on the ∼0.1 U/mL enzyme concentration and plotted against substrate concentration [S]. Non‐linear regression analysis based on 7–10 concentrations depending on the glycoside, was used to determine the Km and k cat values. k cat values were normalized based on the enzyme concentration. […]
# (§2) Kinetic evaluation of 4- nitrophenyloxymethyl glycosides. Enzyme reactions were performed in triplicate. Substrate samples (final volume of 1 mL) were prepared by diluting carefully prepared substrate stock solutions with sodium phosphate buffer pH 6.8 (50 mM final concentration) containing 0.1% bovine serum albumin and milliQ to the desired concentration. The samples were equilibrated at 37 °C for at least 5 minutes before the enzyme in 50 mM buffer (2 U per ml, 50 uL) was added. Aliquots of 100 µL were taken at constant time periods and added to 100 µL aq. NaOH (0.1 M) in a 96 well microtiter plate to quench the enzymatic reaction. The absorbance was measured at 405 nm using a Tecan Spark M10 plate reader.
# (§3) Negative assay controls contained no substrate or no enzyme. Rates of the enzymatic reactions were determined at 7 different substrate concentrations from 0.02 – 1.0 mM. Km and kcat values were determined by nonlinear regression analysis using Graphpad 5.0 (GraphPad Software, San Diego, California USA, www.graphpad.com) for fitting the data. Calibration samples at varying concentration (0.05 – 0.5 mM) were prepared similar to the substrate samples in the enzyme reactions by diluting a carefully prepared 4-nitrophenol stock solution with sodium phosphate buffer pH 6.8 (50 mM final concentration) containing 0.1% bovine serum albumin and milliQ to the desired concentration. […]
# (§4) (T1 determined as 9.13 sec.) was used. Dynamic measurements were started by heating the sample in the NMR to 37 °C and recording a t0-spectrum. Subsequently Abg (V = 2.05 uL, 0.82 U, 1.64 U/mL) was added to the sample outside of the NMR. The sample was mixed by shaking and quickly reintroduced to the NMR.
# (§5) The time of enzyme addition was recorded as t0. Spectra were recorded over an appropriate time- scale with the relaxation delay at 3*T1 of the internal standard.
# (§6) In vivo experiments were performed at the company Charles Rivers (Den Bosch, The Netherlands) in accordance with Dutch law of animal experiments and under approval of the central committee of animal experiments (CCD). Relative and absolute bioavailability may be determined in different animal models and according to different protocols.
# (§7) The following protocol is typical for determining bioavailability in female Beagle dogs. The animals were deprived from food over a time period of 8 h prior to administration and 2 h after administration of the test molecules. Water was supplied without limitation. On the study day, the animals received test molecule 10h […]
# (§8) ethanol and 0.9% NaCl + 5% mannitol in water. Blood samples were collected from the jugular vein on the […]
# [2] = target: T2, Abg (Agrobacterium Sp. β-glucosidase) (Agrobacterium sp., UniProt P12614); assay: Enzymatic conversion of glycoside-drug conjugates at 200 μM analyzed by HPLC; assay type: biochemical; settings: for Product release: 200 μM substrate, 50 mM phosphate buffer pH 6.8, Abg 0.1 U/mL; for Product release / Enzymatic hydrolysis by Abg (in words): 37 °C; for Enzymatic hydrolysis by Abg (in words): HPLC
# T2 sequence (P12614 1-459): B1 chain
# [3] = substrate: C[C@H]1O[C@@H](OCOc2ccc([N+](=O)[O-])cc2)[C@H](O)[C@@H](O)[C@@H]1O; assay: Michaelis-Menten kinetics of enzymatic hydrolysis, release of 4-nitrophenol (absorbance at 405 nm); assay type: biochemical, Agrobacterium Sp.; settings: other: 4-nitrophenyloxymethyl glycosides 5a-f, phosphate buffer pH 6.8, 0.1 % BSA, 37 °C, N.A: no activity
# Method: as §1, §2, §3, §4, §5, §6, §7, §8
# [4] = substrate: C[C@H]1O[C@@H](OCOc2ccc([N+](=O)[O-])cc2)[C@H](O)[C@@H](O)[C@H]1O; assay: as above; assay type: biochemical, Agrobacterium Sp.; settings: other: 4-nitrophenyloxymethyl glycosides 5a-f, phosphate buffer pH 6.8, 0.1 % BSA, 37 °C, N.A: no activity
# Method: as §1, §2, §3, §4, §5, §6, §7, §8
# [5] = substrate: C[C@H]1O[C@@H](Oc2ccc([N+](=O)[O-])cc2)[C@H](O)[C@@H](O)[C@@H]1O; assay: as above; assay type: biochemical, Agrobacterium Sp.; settings: other: 4-nitrophenyl glycosides 6a-f, phosphate buffer pH 6.8, 0.1 % BSA, 37 °C
# Method: as §1, §2, §3, §4, §5, §6, §7, §8
# [6] = substrate: C[C@H]1O[C@@H](Oc2ccc([N+](=O)[O-])cc2)[C@H](O)[C@@H](O)[C@H]1O; assay: as above; assay type: biochemical, Agrobacterium Sp.; settings: other: 4-nitrophenyl glycosides 6a-f, phosphate buffer pH 6.8, 0.1 % BSA, 37 °C
# Method: as §1, §2, §3, §4, §5, §6, §7, §8
# [7] = substrate: O=[N+]([O-])c1ccc(OCO[C@@H]2O[C@H](CO)[C@@H](O)[C@H](O)[C@H]2O)cc1; assay: as above; assay type: biochemical, Agrobacterium Sp.; settings: other: 4-nitrophenyloxymethyl glycosides 5a-f, phosphate buffer pH 6.8, 0.1 % BSA, 37 °C, N.A: no activity
# Method: as §1, §2, §3, §4, §5, §6, §7, §8
# [8] = substrate: O=[N+]([O-])c1ccc(OCO[C@@H]2O[C@H](CO)[C@H](O)[C@H](O)[C@H]2O)cc1; assay: as above; assay type: biochemical, Agrobacterium Sp.; settings: other: 4-nitrophenyloxymethyl glycosides 5a-f, phosphate buffer pH 6.8, 0.1 % BSA, 37 °C, N.A: no activity
# Method: as §1, §2, §3, §4, §5, §6, §7, §8
# [9] = substrate: O=[N+]([O-])c1ccc(O[C@@H]2OC[C@@H](O)[C@H](O)[C@H]2O)cc1; assay: as above; assay type: biochemical, Agrobacterium Sp.; settings: other: 4-nitrophenyl glycosides 6a-f, phosphate buffer pH 6.8, 0.1 % BSA, 37 °C
# Method: as §1, §2, §3, §4, §5, §6, §7, §8
# [10] = substrate: O=[N+]([O-])c1ccc(O[C@@H]2OC[C@H](O)[C@H](O)[C@H]2O)cc1; assay: as above; assay type: biochemical, Agrobacterium Sp.; settings: other: 4-nitrophenyl glycosides 6a-f, phosphate buffer pH 6.8, 0.1 % BSA, 37 °C
# Method: as §1, §2, §3, §4, §5, §6, §7, §8
# [11] = substrate: O=[N+]([O-])c1ccc(O[C@@H]2O[C@H](CO)[C@@H](O)[C@H](O)[C@H]2O)cc1; assay: as above; assay type: biochemical, Agrobacterium Sp.; settings: other: 4-nitrophenyl glycosides 6a-f, phosphate buffer pH 6.8, 0.1 % BSA, 37 °C
# Method: as §1, §2, §3, §4, §5, §6, §7, §8
# [12] = substrate: O=[N+]([O-])c1ccc(O[C@@H]2O[C@H](CO)[C@H](O)[C@H](O)[C@H]2O)cc1; assay: as above; assay type: biochemical, Agrobacterium Sp.; settings: other: 4-nitrophenyl glycosides 6a-f, phosphate buffer pH 6.8, 0.1 % BSA, 37 °C
# Method: as §1, §2, §3, §4, §5, §6, §7, §8
# [13] = 200 μM, in presence of 5 % ethanol
# [14] = 0.5 h, in presence of 5 % ethanol
# [15] = 1.0 h, in presence of 5 % ethanol
# [16] = 2.0 h, in presence of 5 % ethanol
molecule,measurement,setting,value
C[C@H]1O[C@@H](Oc2ccc([N+](=O)[O-])cc2)[C@H](O)[C@@H](O)[C@@H]1O [6 b],V0 at high substrate concentration (in words),[1],over expected rate‐enhancement
"O=[N+]([O-])c1ccc(O[C@@H]2OC[C@@H](O)[C@H](O)[C@H]2O)cc1 [6 c, 4‐nitrophenyl xylose]",V0 at high substrate concentration (in words),[1],over expected rate‐enhancement
O=[N+]([O-])c1ccc(O[C@@H]2O[C@H](CO)[C@H](O)[C@H](O)[C@H]2O)cc1 [6 d],V0 at high substrate concentration (in words),[1],followed a horizontal asymptote
C[C@H]1O[C@@H](Oc2ccc([N+](=O)[O-])cc2)[C@H](O)[C@@H](O)[C@H]1O [6 e],V0 at high substrate concentration (in words),[1],followed a horizontal asymptote
OC[C@H]1O[C@@H](OCOc2ccccc2)[C@H](O)[C@@H](O)[C@@H]1O [10 a],Product release,[2]; 0.5 h,38.6±2.3%
same,Product release,[2]; 1.0 h,66.0±2.0%
same,Product release,[2]; 2.0 h,90% and 89.8±1.7%
same,Increase in conversion compared to direct conjugate Glc−Ph,"[2]; after two hours, 200 μM, Abg",twenty
CC(C)c1cccc(C(C)C)c1OCO[C@@H]1O[C@H](CO)[C@@H](O)[C@H](O)[C@H]1O [10 b],Enzymatic hydrolysis by Abg (in words),[2]; [13],not hydrolyzed
same,Product release,[2]; [14],1.95±0.3%
same,Product release,[2]; [15],1.73±0.3%
same,Product release,[2]; [16],1.66±0.4%
CCCCc1nc(Cl)c(CO)n1Cc1ccc(-c2ccccc2-c2nnn(CO[C@@H]3O[C@H](CO)[C@@H](O)[C@H](O)[C@H]3O)n2)cc1 [10 i],Enzymatic hydrolysis by Abg (in words),[2]; [13],hydrolyzed slower
same,Product release,[2]; [14],16.7±4.8%
same,Product release,[2]; [15],39.3±2.2%
same,Product release,[2]; [16],51.3±4%
same,Product release,"[2]; 24 h, in presence of 5 % ethanol",74.7±10%
"OC[C@H]1O[C@@H](Oc2ccccc2)[C@H](O)[C@@H](O)[C@@H]1O [Glc−Ph, phenyl β‐D‐glucopyranoside, reference compound]",Product release,[2]; 0.5 h,1.9±0.04%
same,Product release,[2]; 1.0 h,3.0±0.30%
same,Product release,[2]; 2.0 h,5.2±0.16%
same,Product release,[2]; 24 h,28% and 27.7±5.5%
B1,Km,[3],239 µM
same,kcat,[3],0.796 s⁻¹
same,kcat/Km,[3],3330 M⁻¹ s⁻¹
same,Km,[4],202 µM
same,kcat,[4],7.18 s⁻¹
same,kcat/Km,[4],35500 M⁻¹ s⁻¹
same,Km,[5],169 µM
same,kcat,[5],29.5 s⁻¹
same,kcat/Km,[5],175000 M⁻¹ s⁻¹
same,Km,[6],233 µM
same,kcat,[6],60.3 s⁻¹
same,kcat/Km,[6],259000 M⁻¹ s⁻¹
same,Km,[7],84 µM
same,kcat,[7],18.4 s⁻¹
same,kcat/Km,[7],219000 M⁻¹ s⁻¹
same,Km,[8],1870 µM
same,kcat,[8],3.71 s⁻¹
same,kcat/Km,[8],1980 M⁻¹ s⁻¹
same,Km,[9],244 µM
same,kcat,[9],0.580 s⁻¹
same,kcat/Km,[9],2380 M⁻¹ s⁻¹
same,Km,[10],175 µM
same,kcat,[10],1.03 s⁻¹
same,kcat/Km,[10],5890 M⁻¹ s⁻¹
same,Km,[11],108 µM
same,kcat,[11],38.8 s⁻¹
same,kcat/Km,[11],359000 M⁻¹ s⁻¹
same,Km,[12],3450 µM
same,kcat,[12],63.6 s⁻¹
same,kcat/Km,[12],18400 M⁻¹ s⁻¹
